Among the data in the Immune Epitope Database (IEDB) are Kd values, retold here.

Assay [1] addresses HLA-B*39:01. As to the kind of experiment: IEDB peptide-MHC binding, purified MHC/competitive/fluorescence; filed as Kd, often an IC50 or EC50 that approximates it; ≥ and ≤ were set here for values at or beyond the usual limits of such assays. To be noted: source organism: Orthomarburgvirus marburgense.
Another assay deals with HLA-A*02:06. The description is as above.
The target in another assay is HLA-B*08:03. As to the kind of experiment: IEDB peptide-MHC binding, purified MHC/direct/fluorescence; filed as Kd, often an IC50 or EC50 that approximates it; ≥ and ≤ were set here for values at or beyond the usual limits of such assays.
The target in a further assay is HLA-B*44:02. The description is as above. The settings on record: source organism: Orthomarburgvirus marburgense.
A further assay concerns the target HLA-A*01:01. The description is as above.
In assay [2] the target is HLA-B*18:01. The description is as above.
Assay [3] deals with HLA-A*26:03. Described as above.
For assay [4], the target named is HLA-B*15:17. The assay is described as above.
For the next assay, the target named is HLA-A*31:01. The description is as above.
The target of assay [5] is HLA-B*27:05. Described as above.
Assay [6] addresses HLA-A*68:02. The description is as above.
For a further assay, the target named is HLA-A*11:01. The description is as above.
In assay [7] the target is HLA-A*26:02. The assay is described as above.
In a further assay the target is HLA-B*40:01. The description is as above.
The target in the next assay is HLA-B*57:01. Described as above.
A further assay concerns the target HLA-B*08:02. The assay is described as above.
The target of a further assay is HLA-A*69:01. The description is as above.
A further assay has as its target HLA-B*48:01. The assay is described as above.
Assay [8] has as its target HLA-B*07:02. Described as above.
The target of assay [9] is HLA-A*02:01. The description is as above.
A further assay addresses HLA-B*58:01. The description is as above.
Assay [10] deals with HLA-B*15:17. As to the kind of experiment: IEDB peptide-MHC binding, purified MHC/competitive/fluorescence; filed as Kd, often an IC50 or EC50 that approximates it; ≥ and ≤ were set here for values at or beyond the usual limits of such assays.
In assay [11] the target is HLA-B*27:05. The description is as above. The settings on record: source organism: Burkholderia mallei NCTC 10229.
Assay [12] concerns the target HLA-A*68:02. The description is as above. The settings on record: source organism: Burkholderia mallei NCTC 10229.
Assay [13] deals with HLA-A*02:01. The description is as above. To be noted: source organism: Burkholderia mallei NCTC 10229.
In the next assay the target is HLA-B*46:01. Description: IEDB peptide-MHC binding, purified MHC/direct/fluorescence; filed as Kd, often an IC50 or EC50 that approximates it; ≥ and ≤ were set here for values at or beyond the usual limits of such assays.
A further assay concerns the target HLA-A*26:01. The description is as above.
The target in the next assay is HLA-B*08:01. Described as above.
For the next assay, the target named is HLA-A*03:01. The description is as above. The settings on record: source organism: Burkholderia mallei.
Assay [14] deals with HLA-B*15:01. Described as above.
For assay [15], the target named is HLA-B*18:01. As to the kind of experiment: IEDB peptide-MHC binding, purified MHC/competitive/fluorescence; filed as Kd, often an IC50 or EC50 that approximates it; ≥ and ≤ were set here for values at or beyond the usual limits of such assays. The settings on record: source organism: Variola virus.
Assay [16] deals with HLA-A*26:03. The description is as above.
Assay [17] addresses HLA-A*26:02. The assay is described as above.
Assay [18] deals with HLA-B*15:01. Described as above. The settings on record: source organism: Variola virus.
The target of another assay is HLA-A*24:03. Description: IEDB peptide-MHC binding, purified MHC/direct/fluorescence; filed as Kd, often an IC50 or EC50 that approximates it; ≥ and ≤ were set here for values at or beyond the usual limits of such assays. To be noted: source organism: Cowpox virus.
Assay [19] concerns the target HLA-B*07:02. Description: IEDB peptide-MHC binding, purified MHC/competitive/fluorescence; filed as Kd, often an IC50 or EC50 that approximates it; ≥ and ≤ were set here for values at or beyond the usual limits of such assays. To be noted: source organism: Vaccinia virus WR.
In a further assay the target is HLA-B*35:01. Described as above. The settings on record: source organism: Vaccinia virus WR.
Assay [20] concerns the target HLA-B*39:01. As to the kind of experiment: IEDB peptide-MHC binding, purified MHC/direct/fluorescence; filed as Kd, often an IC50 or EC50 that approximates it; ≥ and ≤ were set here for values at or beyond the usual limits of such assays. To be noted: source organism: Cowpox virus.
Where [21] appears, read: source organism: Orthomarburgvirus marburgense.
Setting [22] is: source organism: Ravn virus - Ravn, Kenya, 1987.
Setting [23] is: source organism: Burkholderia mallei.
[24] abbreviates: source organism: Burkholderia mallei ATCC 23344.
Where [25] appears, read: source organism: Vaccinia virus WR.

For orientation: Kd means the concentration at which binding is half-saturated. A high value points to a looser complex.

For LEHGLYPQL, the Kd with HLA-B*39:01 [1] is 0.931 µM; with HLA-A*02:06 (setting [21]), at least 20 µM; with HLA-B*08:03 (setting [22]), at least 20 µM; in the assay with HLA-B*44:02, at least 5 µM; with HLA-A*01:01 (setting [21]), at least 20 µM; with HLA-B*18:01 [2] (setting [21]), 0.034 µM. Moreover, the dissociation constant Kd in the assay with HLA-A*26:03 [3] (setting [22]), in the assay with HLA-B*15:17 [4] (setting [21]), with HLA-A*31:01 (setting [21]), with HLA-B*27:05 [5] (setting [21]), in the assay with HLA-A*68:02 [6] (setting [21]) and with HLA-A*11:01 (setting [21]) was at least 20 µM throughout. Besides, the Kd was at least 20 µM with HLA-A*26:02 [7] (setting [22]); 0.017 µM in the assay with HLA-B*40:01 (setting [21]); at least 20 µM with HLA-B*57:01 (setting [21]); at least 20 µM with HLA-B*08:02 (setting [22]); at least 20 µM in the assay with HLA-A*69:01 (setting [21]); 0.634 µM in the assay with HLA-B*48:01 (setting [21]). Besides, the Kd with HLA-B*07:02 [8] (setting [21]), with HLA-A*02:01 [9] (setting [21]) and with HLA-B*58:01 (setting [21]) was at least 20 µM throughout.

With RRSLLAHVR, the Kd is at least 20 µM with HLA-B*15:17 [10] (source organism: Burkholderia mallei NCTC 10229); 0.0066 µM in the assay with HLA-B*27:05 [11]; 2.92 µM in the assay with HLA-A*68:02 [12]; 0.034 µM with HLA-A*02:01 [13]; at least 20 µM with HLA-A*01:01 (setting [23]); at least 20 µM with HLA-B*18:01 [2] (setting [23]). The equilibrium dissociation constant (Kd) with HLA-A*26:03 [3] (setting [24]) is at least 20 µM; with HLA-A*31:01 (setting [23]), 5.4 µM; with HLA-B*46:01 (setting [23]), at least 20 µM; in the assay with HLA-A*11:01 (setting [23]) it was 1.13 µM; with HLA-A*26:02 [7] (setting [24]), at least 20 µM; in the assay with HLA-A*26:01 (setting [24]), at least 20 µM. The dissociation constant Kd in the assay with HLA-B*40:01 (setting [23]), with HLA-B*57:01 (setting [23]), with HLA-B*08:02 (setting [24]), with HLA-B*48:01 (setting [23]), with HLA-B*07:02 [8] (setting [23]) and with HLA-B*58:01 (setting [23]) was at least 20 µM each time. Also, the Kd in the assay with HLA-B*08:01 (setting [24]) is at least 20 µM; with HLA-A*03:01 it was 1.18 µM; with HLA-B*15:01 [14] (setting [23]), at least 20 µM.

Take VYSFDESSF: the equilibrium dissociation constant (Kd) in the assay with HLA-B*18:01 [15] was 0.379 µM; in the assay with HLA-A*26:03 [16] (source organism: Variola virus) it was 1.42 µM; with HLA-B*15:17 [10] (source organism: Variola virus), 2.1 µM; with HLA-A*26:02 [17] (source organism: Variola virus), 0.192 µM; with HLA-A*02:06 (source organism: Variola virus), at least 20 µM; with HLA-B*15:01 [18], 2.28 µM. The Kd is at least 20 µM in the assay with HLA-A*01:01 (source organism: Cowpox virus); at least 20 µM in the assay with HLA-A*31:01 (source organism: Cowpox virus); at least 20 µM in the assay with HLA-A*68:02 [6] (source organism: Cowpox virus); at least 20 µM with HLA-A*11:01 (source organism: Cowpox virus); 0.275 µM with HLA-A*24:03; at least 20 µM with HLA-B*57:01 (source organism: Cowpox virus). In addition, the Kd with HLA-A*69:01 (source organism: Cowpox virus), with HLA-B*07:02 [8] (source organism: Cowpox virus), with HLA-A*02:01 [9] (source organism: Cowpox virus) and in the assay with HLA-B*58:01 (source organism: Cowpox virus) was at least 20 µM each time.

On to YHRPLTGYM, for which the Kd in the assay with HLA-A*26:03 [16] (setting [25]) was at least 20 µM; with HLA-A*26:02 [17] (setting [25]) it was at least 20 µM; with HLA-B*07:02 [19], 0.302 µM; with HLA-B*35:01 it was at least 20 µM; with HLA-B*08:03 (source organism: Variola virus), at least 20 µM; in the assay with HLA-A*01:01 (source organism: Cowpox virus), at least 20 µM. Also, the Kd in the assay with HLA-B*18:01 [2] (source organism: Cowpox virus), with HLA-B*15:17 [4] (source organism: Cowpox virus), in the assay with HLA-B*46:01 (source organism: Cowpox virus), with HLA-B*27:05 [5] (source organism: Cowpox virus), with HLA-A*68:02 [6] (source organism: Cowpox virus) and with HLA-A*26:01 (source organism: Variola virus) was at least 20 µM each time. Besides, the equilibrium dissociation constant (Kd) with HLA-B*39:01 [20], with HLA-B*40:01 (source organism: Cowpox virus), in the assay with HLA-B*57:01 (source organism: Cowpox virus), in the assay with HLA-B*08:02 (source organism: Variola virus), in the assay with HLA-A*69:01 (source organism: Cowpox virus) and with HLA-B*48:01 (source organism: Cowpox virus) was at least 20 µM in each case. Also, the dissociation constant (Kd) in the assay with HLA-A*02:01 [9] (source organism: Cowpox virus), with HLA-B*58:01 (source organism: Cowpox virus), in the assay with HLA-B*08:01 (source organism: Variola virus) and with HLA-B*15:01 [14] (source organism: Cowpox virus) was at least 20 µM each time.
